Results: paper PMC6286126, “A novel pathway of LPS uptake through syndecan-1 leading to pyroptotic cell death” (eLife, 2018)

Target: the molecule itself
Test: native gel or EMSA; human SCGB3A2 10 µg on 0.8% agarose gel in TAE, Coomassie Brilliant Blue staining of the gel

B1: recombinant human SCGB3A2 (C1) (natural protein, UniProt Q96PL1 22-93, looked up)
chain: FLINKVPLPVDKLAPLPLDNILPFMDPLKLLLKTLGISVEHLVEGLRKCVNELGPEASEAVKKLLEALSHLV
notes: recombinant human SCGB3A2, lot C1; also called hS2; source: recombinant; in house (APCBio Innovations), Cai et al., 2014
binding result: binds
